Data from patent US20230365641.
Values joined by “and” are separate entries in the source; they are usually repeats but may differ in a detail not shown here. Identical values can stand only once.

Sequence of TC3 (chain, as listed by the source, chain 1 of 3, other chains not shown): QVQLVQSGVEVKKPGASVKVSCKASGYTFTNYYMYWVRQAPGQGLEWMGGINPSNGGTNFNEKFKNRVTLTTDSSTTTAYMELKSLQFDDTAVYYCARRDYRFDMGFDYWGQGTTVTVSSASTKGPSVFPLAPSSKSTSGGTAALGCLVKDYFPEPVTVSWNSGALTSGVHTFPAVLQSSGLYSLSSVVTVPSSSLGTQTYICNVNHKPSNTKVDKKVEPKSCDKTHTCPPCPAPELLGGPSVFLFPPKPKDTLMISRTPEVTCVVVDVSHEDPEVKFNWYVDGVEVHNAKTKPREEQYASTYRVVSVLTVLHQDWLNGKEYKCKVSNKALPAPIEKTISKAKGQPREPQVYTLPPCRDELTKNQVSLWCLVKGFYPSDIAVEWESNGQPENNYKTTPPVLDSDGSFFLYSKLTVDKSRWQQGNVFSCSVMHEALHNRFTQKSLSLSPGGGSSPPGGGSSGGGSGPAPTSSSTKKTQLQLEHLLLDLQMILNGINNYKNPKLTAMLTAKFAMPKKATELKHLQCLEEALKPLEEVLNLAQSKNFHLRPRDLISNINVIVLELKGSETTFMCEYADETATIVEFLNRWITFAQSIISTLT
Sequence of TC3 (chain, as listed by the source, chain 2 of 3, other chains not shown): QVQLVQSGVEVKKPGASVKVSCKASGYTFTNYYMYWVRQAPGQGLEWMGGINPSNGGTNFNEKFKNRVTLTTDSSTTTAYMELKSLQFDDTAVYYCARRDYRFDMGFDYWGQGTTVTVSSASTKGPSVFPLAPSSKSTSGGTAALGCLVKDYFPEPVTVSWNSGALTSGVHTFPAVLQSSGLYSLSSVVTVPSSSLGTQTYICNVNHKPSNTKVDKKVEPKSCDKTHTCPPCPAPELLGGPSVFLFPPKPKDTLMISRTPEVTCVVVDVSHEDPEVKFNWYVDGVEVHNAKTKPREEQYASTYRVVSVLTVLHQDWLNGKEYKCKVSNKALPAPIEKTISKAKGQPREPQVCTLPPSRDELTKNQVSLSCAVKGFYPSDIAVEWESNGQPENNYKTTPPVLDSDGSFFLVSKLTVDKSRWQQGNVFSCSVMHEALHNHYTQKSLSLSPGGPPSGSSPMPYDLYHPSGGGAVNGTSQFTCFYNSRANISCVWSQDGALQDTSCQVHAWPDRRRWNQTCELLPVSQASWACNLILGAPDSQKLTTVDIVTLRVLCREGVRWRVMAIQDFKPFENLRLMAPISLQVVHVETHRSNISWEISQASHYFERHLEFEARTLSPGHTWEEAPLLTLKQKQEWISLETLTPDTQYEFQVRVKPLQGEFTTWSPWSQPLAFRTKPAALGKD
Sequence of TC24 (chain, as listed by the source, chain 1 of 3, other chains not shown): as the sequence (chain, as listed by the source, chain 1 of 3, other chains not shown) above
Sequence of TC24 (chain, as listed by the source, chain 2 of 3, other chains not shown): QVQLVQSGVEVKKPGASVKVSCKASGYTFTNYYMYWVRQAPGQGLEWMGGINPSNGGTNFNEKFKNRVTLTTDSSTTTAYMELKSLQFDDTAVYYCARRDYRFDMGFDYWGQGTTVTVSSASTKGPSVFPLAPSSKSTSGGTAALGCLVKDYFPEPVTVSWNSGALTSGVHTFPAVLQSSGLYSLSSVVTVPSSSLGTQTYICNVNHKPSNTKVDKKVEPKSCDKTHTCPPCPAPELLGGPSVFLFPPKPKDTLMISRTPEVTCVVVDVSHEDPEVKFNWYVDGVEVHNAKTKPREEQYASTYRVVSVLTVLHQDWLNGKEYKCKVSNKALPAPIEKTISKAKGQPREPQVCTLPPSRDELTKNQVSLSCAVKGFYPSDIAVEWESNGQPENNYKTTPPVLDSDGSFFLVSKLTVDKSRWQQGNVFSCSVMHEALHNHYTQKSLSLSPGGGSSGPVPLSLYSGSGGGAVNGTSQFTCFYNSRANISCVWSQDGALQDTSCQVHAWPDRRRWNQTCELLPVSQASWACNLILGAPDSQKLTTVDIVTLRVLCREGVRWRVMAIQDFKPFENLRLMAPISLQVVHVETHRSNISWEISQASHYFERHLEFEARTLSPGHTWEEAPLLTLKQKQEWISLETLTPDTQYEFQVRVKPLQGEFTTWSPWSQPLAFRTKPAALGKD
Sequence of TC47 (chain, as listed by the source, chain 1 of 3, other chains not shown): as the sequence (chain, as listed by the source, chain 1 of 3, other chains not shown) above
Sequence of TC47 (chain, as listed by the source, chain 2 of 3, other chains not shown): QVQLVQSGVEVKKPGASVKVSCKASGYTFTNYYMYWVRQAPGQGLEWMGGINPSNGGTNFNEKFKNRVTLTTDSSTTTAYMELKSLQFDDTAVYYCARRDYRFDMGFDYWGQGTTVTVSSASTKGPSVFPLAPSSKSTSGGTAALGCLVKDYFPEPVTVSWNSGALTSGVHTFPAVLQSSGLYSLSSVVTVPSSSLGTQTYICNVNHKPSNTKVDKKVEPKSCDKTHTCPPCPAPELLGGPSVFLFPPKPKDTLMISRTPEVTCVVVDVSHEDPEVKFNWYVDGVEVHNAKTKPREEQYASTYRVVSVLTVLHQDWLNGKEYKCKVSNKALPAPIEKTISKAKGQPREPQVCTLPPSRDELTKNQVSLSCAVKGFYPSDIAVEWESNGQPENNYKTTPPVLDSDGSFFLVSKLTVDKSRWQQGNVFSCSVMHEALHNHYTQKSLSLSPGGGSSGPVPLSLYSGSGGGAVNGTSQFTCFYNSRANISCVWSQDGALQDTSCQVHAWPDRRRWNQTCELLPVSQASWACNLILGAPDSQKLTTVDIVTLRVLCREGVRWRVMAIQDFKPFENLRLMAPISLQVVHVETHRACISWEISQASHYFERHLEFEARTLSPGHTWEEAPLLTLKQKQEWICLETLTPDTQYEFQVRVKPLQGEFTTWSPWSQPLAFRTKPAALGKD
Sequence of TC46 (chain, as listed by the source, chain 1 of 3, other chains not shown): as the sequence (chain, as listed by the source, chain 1 of 3, other chains not shown) above
Sequence of TC46 (chain, as listed by the source, chain 2 of 3, other chains not shown): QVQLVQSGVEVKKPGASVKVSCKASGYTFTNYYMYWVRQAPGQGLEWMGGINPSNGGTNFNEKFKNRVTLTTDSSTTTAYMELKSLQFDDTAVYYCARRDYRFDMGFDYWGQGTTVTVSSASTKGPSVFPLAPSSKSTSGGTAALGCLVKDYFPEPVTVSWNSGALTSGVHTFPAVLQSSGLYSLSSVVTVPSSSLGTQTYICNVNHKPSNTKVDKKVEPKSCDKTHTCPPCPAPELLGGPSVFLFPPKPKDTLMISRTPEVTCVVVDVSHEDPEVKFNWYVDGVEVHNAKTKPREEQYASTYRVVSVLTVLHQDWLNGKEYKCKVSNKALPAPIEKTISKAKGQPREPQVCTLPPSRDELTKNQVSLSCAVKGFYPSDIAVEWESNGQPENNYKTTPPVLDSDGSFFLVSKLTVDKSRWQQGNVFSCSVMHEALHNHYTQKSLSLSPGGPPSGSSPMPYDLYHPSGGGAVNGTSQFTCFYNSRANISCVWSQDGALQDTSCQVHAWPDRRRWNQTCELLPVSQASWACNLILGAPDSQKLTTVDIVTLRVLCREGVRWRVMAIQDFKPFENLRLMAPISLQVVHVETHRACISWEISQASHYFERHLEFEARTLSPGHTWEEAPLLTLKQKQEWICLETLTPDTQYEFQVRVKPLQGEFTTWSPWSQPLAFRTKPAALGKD

B1: recombinant human MMP-7 (protein)
chain: YSLFPNSPKWTSKVVTYRIVSYTRDLPHITVDRLVSKALNMWGKEIPLHFRKVVWGTADIMIGFARGAHGDSYPFDGPGNTLAHAFAPGTGLGGDAHFDEDERWTDGSSLGINFLYAATHELGHSLGMGHSSDPNAVMYPTYGNGDPQNFKLSQDDIKGIQKLYGKRSNSRKK
Est. kcat/KM (TC24): 140000 M⁻¹ s⁻¹
Est. kcat/KM (TC53): 24000 M⁻¹ s⁻¹ and 23000 M⁻¹ s⁻¹
Est. kcat/KM (TC46): 13000 M⁻¹ s⁻¹
Est. kcat/KM (TC71): 19000 M⁻¹ s⁻¹ and 22000 M⁻¹ s⁻¹
Est. kcat/KM (TC69): 78000 M⁻¹ s⁻¹
Est. kcat/KM (TC75): 18000 M⁻¹ s⁻¹ and 19000 M⁻¹ s⁻¹
Est. kcat/KM (TC3): 13000 M⁻¹ s⁻¹
Est. kcat/KM (TC73): 71000 M⁻¹ s⁻¹ and 67000 M⁻¹ s⁻¹
Est. kcat/KM (TC57): 13000 M⁻¹ s⁻¹ and 15000 M⁻¹ s⁻¹
Est. kcat/KM (TC68): 13000 M⁻¹ s⁻¹
Est. kcat/KM (TC47): 130000 M⁻¹ s⁻¹

B2: recombinant human MMP-2 (protein)
chain: YNFFPRKPKWDKNQITYRIIGYTPDLDPETVDDAFARAFQVWSDVTPLRFSRIHDGEADIMINFGRWEHGDGYPFDGKDGLLAHAFAPGTGVGGDSHFDDDELWTLGEGQVVRVKYGNADGEYCKFPFLFNGKEYNSCTDTGRSDGFLWCSTTYNFEKDGKYGFCPHEALFTMGGNAEGQPCKFPFRFQGTSYDSCTTEGRTDGYRWCGTTEDYDRDKKYGFCPETAMSTVGGNSEGAPCVFPFTFLGNKYESCTSAGRSDGKMWCATTANYDDDRKWGFCPDQGYSLFLVAAHEFGHAMGLEHSQDPGALMAPIYTYTKNFRLSQDDIKGIQELYGASPDIDLGTGPTPTLGPVTPEICKQDIVFDGIAQIRGEIFFFKDRFIWRTVTPRDKPMGPLLVATFWPELPEKIDAVYEAPQEEKAVFFAGNEYWIYSASTLERGYPKPLTSLGLPPDVQRVDAAFNWSKNKKTYIFAGDKFWRYNEVKKKMDPGFPKLIADAWNAIPDNLDAVVDLQGGGHSYFFKGAYYLKLENQSLKSVKFGSIKSDWLGC
Est. kcat/KM (TC74): 9600 M⁻¹ s⁻¹ and 9800 M⁻¹ s⁻¹
Est. kcat/KM (TC53): 4900 M⁻¹ s⁻¹ and 4700 M⁻¹ s⁻¹
Est. kcat/KM (TC71): 130000 M⁻¹ s⁻¹ and 140000 M⁻¹ s⁻¹
Est. kcat/KM (TC69): 51000 M⁻¹ s⁻¹ and 50000 M⁻¹ s⁻¹
Est. kcat/KM (TC75): 120000 M⁻¹ s⁻¹ and 110000 M⁻¹ s⁻¹
Est. kcat/KM (TC73): 43000 M⁻¹ s⁻¹ and 41000 M⁻¹ s⁻¹
Est. kcat/KM (TC57): 4000 M⁻¹ s⁻¹ and 4400 M⁻¹ s⁻¹
Est. kcat/KM (TC68): 3800 M⁻¹ s⁻¹
Est. kcat/KM (TC70): 11000 M⁻¹ s⁻¹
